Data: patent US20110159022A1, “Immunogenic Peptides Derived from the Midkine Protein, as an Anticancer Vaccine” (priority 2008, published 2011)
Positions count from the first letter of the chain named.

What was measured:
HLA-DR1 (DRB1*0101) = HLA-DR1 (DRB1*0101) (Homo sapiens, UniProt P01903+P01911, A100R/D57E/F55L/F60I/F76Y/I96L/L162R/M171V/P40L/Q125E/R42F/V115G/Y59C); assay type: binding; conditions: ratio of IC50 of competitor peptide to IC50 of reference peptide; mean of at least two independent experiments; less than 100 = active
HLA-DR13 (DRB1*1301) = HLA-DR13 (DRB1*1301) (Homo sapiens, UniProt P01903+P01911, A100E/A169T/K41T/L162R/M171V/P40S/Q125H/Q178H/Q39Y/Q99D/R42S/S66N/T262R/W38E/Y61H); assay: HLA II/peptide competition binding assay, DR13; conditions: ratio of IC50 of competitor peptide to IC50 of reference peptide; mean of at least two independent experiments; less than 100 = active
HLA-DRB4 (DRB4*0101) = HLA-DRB4 (DRB4*0101) (Homo sapiens, UniProt P01903+P13762, G164S); assay: HLA II/peptide competition binding assay, DRB4; conditions: ratio of IC50 of competitor peptide to IC50 of reference peptide; mean of at least two independent experiments; less than 100 = active
HLA-DRB3 (DRB3*0101) = HLA-DRB3 (DRB3*0101) (Homo sapiens, UniProt P01903+P79483); assay: HLA II/peptide competition binding assay, DRB3; conditions: ratio of IC50 of competitor peptide to IC50 of reference peptide; mean of at least two independent experiments; less than 100 = active
HLA-DRB5 (DRB5*0101) = HLA-DRB5 (DRB5*0101) (Homo sapiens, UniProt P01903+Q30154); assay: HLA II/peptide competition binding assay, DRB5; conditions: ratio of IC50 of competitor peptide to IC50 of reference peptide; mean of at least two independent experiments; less than 100 = active
HLA-DR3 (DRB1*0301) = HLA-DR3 (DRB1*0301) (Homo sapiens, UniProt P01903+P01911, A100K/A102G/A103R/A169T/F55Y/I96L/K41T/L162R/M171V/P40S/Q125H/Q178H/Q39Y/R42S/S66N/T106N/T262R/W38E/Y61H); assay: HLA II/peptide competition binding assay, DR3; conditions: ratio of IC50 of competitor peptide to IC50 of reference peptide; mean of at least two independent experiments; less than 100 = active
HLA-DP401 (DPB1*0401) = target: T1, HLA-DP401 (DPB1*0401) (Homo sapiens, UniProt P04440+P20036); assay type: binding; conditions: ratio of IC50 of competitor peptide to IC50 of reference peptide; mean of at least two independent experiments; less than 100 = active
T1 sequence (P04440 30-258): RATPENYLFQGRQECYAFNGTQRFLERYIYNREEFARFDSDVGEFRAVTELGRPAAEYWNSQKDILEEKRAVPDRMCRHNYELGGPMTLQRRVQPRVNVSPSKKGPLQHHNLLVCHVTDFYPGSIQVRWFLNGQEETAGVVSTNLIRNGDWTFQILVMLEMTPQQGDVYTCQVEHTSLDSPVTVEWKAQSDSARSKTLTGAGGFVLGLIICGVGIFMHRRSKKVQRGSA
T1 sequence (P20036 29-260): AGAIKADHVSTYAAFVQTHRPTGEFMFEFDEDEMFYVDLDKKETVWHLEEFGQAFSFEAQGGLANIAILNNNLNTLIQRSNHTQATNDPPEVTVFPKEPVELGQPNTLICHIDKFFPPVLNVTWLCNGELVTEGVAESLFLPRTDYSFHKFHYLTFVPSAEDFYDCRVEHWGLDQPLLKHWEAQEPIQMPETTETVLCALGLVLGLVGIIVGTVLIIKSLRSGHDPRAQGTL

HLA-DR11 (DRB1*1101) = HLA-DR11 (DRB1*1101) (Homo sapiens, UniProt P01903+P01911, A100R/A169T/A87E/I96F/K41T/L162R/M171V/P40S/Q125H/Q178H/Q39Y/Q99D/R42S/S66Y/T262R/V115G/W38E); assay type: binding; conditions: ratio of IC50 of competitor peptide to IC50 of reference peptide; mean of at least two independent experiments; less than 100 = active
HLA-DR7 (DRB1*0701) = HLA-DR7 (DRB1*0701) (Homo sapiens, UniProt P01903+P01911, A100R/A102G/A103Q/D57E/D86V/E43K/F76Y/K127E/L162R/M171V/P40G/Q125H/Q99D/R33Q/R42Y/R54Q/S133A/S66F/T210M/V115G/Y107V/Y59L/Y89S); assay: HLA II/peptide competition binding assay, DR7; conditions: ratio of IC50 of competitor peptide to IC50 of reference peptide; mean of at least two independent experiments; less than 100 = active
HLA-DR15 (DRB1*1501) = HLA-DR15 (DRB1*1501) (Homo sapiens, UniProt P01903+P01911); assay: HLA II/peptide competition binding assay, DR15; conditions: ratio of IC50 of competitor peptide to IC50 of reference peptide; mean of at least two independent experiments; less than 100 = active
HLA-DP402 (DPB1*0402) = target: T2, HLA-DP402 (DPB1*0402) (Homo sapiens, UniProt P04440+P20036, A65V/A84D/A85E/L207M); assay type: binding; conditions: ratio of IC50 of competitor peptide to IC50 of reference peptide; mean of at least two independent experiments; less than 100 = active
T2 sequence (P04440 30-258 A65V/A84D/A85E): T1 sequence (P04440 30-258) with A36V, A55D, A56E
T2 sequence (P20036 29-260): T1 sequence (P20036 29-260)

HLA-DR4 (DRB1*0401) = HLA-DR4 (DRB1*0401) (Homo sapiens, UniProt P01903+P01911, A100K/A169T/F76Y/I96L/K127E/L162R/M171V/N62H/P40V/Q125Y/R42H/S133A/S149N/S66Y/V115G/V209L/W38E); assay: HLA II/peptide competition binding assay, DR4; conditions: ratio of IC50 of competitor peptide to IC50 of reference peptide; mean of at least two independent experiments; less than 100 = active
[1] = tested on: 12 predominant HLA II molecules; assay: HLA II/peptide binding assays, count over the panel; parameters: species or system human; conditions: relative activity of less than 100 characterizes the active peptides
From the text: The assays for binding to HLA II molecules are competition binding assays with immunoenzymatic visualization, as described in U.S. Pat. No. 6,649,166 and PCT international application WO 03/040299, respectively, for the HLA-DR and HLA-DP4 molecules. The implementation of these assays for measuring the binding activity of peptides derived from various antigens is illustrated in U.S. Pat. No. 6,649,166 and PCT international applications WO 02/090382, WO 03/040299 and WO 2004/014936.
The sensitivity of each test is reflected by the IC50 values observed with the nonbiotinylated peptides which correspond to the tracers. […] The results are expressed in the form of relative activity (ratio of the IC50 of the competitor peptide to that of the reference peptide (nonbiotinylated peptide which corresponds to the tracer)). A relative activity of less than 100 characterizes the active peptides.

Substance | Relative binding activity, DR1 (HLA-DR1 (DRB1*0101)) | Relative binding activity, DR13 (HLA-DR13 (DRB1*1301)) | Relative binding activity, DRB4 (HLA-DRB4 (DRB4*0101)) | Relative binding activity, DRB3 (HLA-DRB3 (DRB3*0101)) | Relative binding activity, DRB5 (HLA-DRB5 (DRB5*0101)) | Relative binding activity, DR3 (HLA-DR3 (DRB1*0301)) | Relative binding activity, DP401 (HLA-DP401 (DPB1*0401)) | Relative binding activity, DR11 (HLA-DR11 (DRB1*1101)) | Relative binding activity, DR7 (HLA-DR7 (DRB1*0701)) | Relative binding activity, DR15 (HLA-DR15 (DRB1*1501)) | Relative binding activity, DP402 (HLA-DP402 (DPB1*0402)) | Relative binding activity, DR4 (HLA-DR4 (DRB1*0401)) | Total (number of the 12 predominant HLA II molecules bound) [1]
K D K V K K G G P G S E C A E (KDKVKKGGPGSECAE) [MDK 25-39] | 1 251 | >2 537 | >28 868 | >485 | >2 100 | >419 | >879 | >1 086 | >2 479 | >529 | >976 | >1 812 | 0
T S A V A K K K D K V K K G G (TSAVAKKKDKVKKGG) [MDK 18-32] | >5 291 | 132 | >28 868 | >485 | >2 100 | >419 | >879 | >1 086 | >2 479 | >529 | >976 | >1 812 | 0
C R V P C N W K K E F G A D C (CRVPCNWKKEFGADC) [MDK 70-84] |  | >2 537 | >28 868 |  | >2 100 | >419 |  | >1 086 | >2 479 | >529 | >976 | 1 562 | 2
E N W G A C D G G T G T K V R (ENWGACDGGTGTKVR) [MDK 89-103] | 1 460 | >2 537 | >28 868 | 2 333 | >2 100 | >419 | >879 | >1 086 | >2 479 | >529 | >976 | >1 812 | 0
